These results are taken from patent US20140363441A1 (priority 2013, published 2014).

Assay [1] deals with H5N1 (A/Vietnam/1203/04). More on the design: species or system balb/c mice. The settings on record: mouse, in vivo.
In assay [2] the test system is H5N1 (A/Vietnam/1203/04). Set-up: species or system balb/c mice. The settings on record: mouse, in vivo. The source holds these as a separate data set.
In assay [3] the target is influenza A/Puerto Rico/8/34 (PR8) virus particles (M2 protein on the virion) (influenza A virus H1N1 A/Puerto Rico/8/34) (UniProt P06821). The experiment in a line: surface plasmon resonance, Fab fragment on influenza virus.
The target is the same in assay [4]. The experiment in a line: affinity of FAb fragments on whole PR8 virus.
Assay [5] has as its target M2 protein of influenza A/Hong Kong/483/1997 (H5N1), expressed on cells (influenza A virus H5N1 A/Hong Kong/483/97).
In the next assay the target is HVIR1. The experiment in a line: peptide ELISA, mAb 5 µg/mL.

For orientation: Kd means the constant that tells how readily two partners part at equilibrium. A low value points to tighter binding. What is called koff is the rate constant with which the complex falls apart. A higher koff goes with fast dissociation. The term kon denotes a measure of how fast the partners come together. A higher kon goes with faster complex formation.

Residue numbers refer to the chain shown, from its start. “And” between values parts separate entries of the source, which are not always exact repeats. Equal values may be shown once. “Also recorded” adds a separate entry of the source.

Take `CCOC(=O)C1=C[C@@H](OC(CC)CC)[C@H](NC(C)=O)[C@@H](N)C1` [oseltamivir]: the “percentage of weight remaining” value in the assay on H5N1 (A/Vietnam/1203/04) [1] was “completely protected; also recorded: retained more weight”. Further, in the assay on H5N1 (A/Vietnam/1203/04) [2], the survival rate result is listed as “extinction of the population prior to the end of the therapy”.

As to ch14C2 Fab fragment, in assay [3], the Kd worked out at 4 µM, the koff was 0.0018 s⁻¹ and the kon was determined as 500 M⁻¹ s⁻¹. In assay [4], the Kd came out at 4 µM, the dissociation rate constant (koff) came out at 0.00286 s⁻¹ and the kon amounted to 500 M⁻¹ s⁻¹.

B1: 3252_C13 (antibody, V domains shown)
VH: QVQLQESGPGLVKPSETLSLTCTVSGASISSDYWSWIRLPPGKGLEWIGYIYNRGSTKYTPSLKSRVTISLDTAENQFSLRLRSVTAADTAIYYCARHVGGHTYGIDYWGQGTLVTVSS
VL: DIQMTQSPSSLSASVGDRVTITCRASQSISNYLNWYQHKPGEAPKLLNYAASSLQSGVPSRFSASGSGTDFTLTISSLQPEDFATYYCQQSYNTPITFGQGTRLEIK
For B1, in assay [5], the MFI is 449 MFI.

B2: 3362_B11 (antibody, V domains shown)
VH: QVQLQASGPGLVKPSETLSLTCTVSGDSITSGAYYWTWIRQHPGKGLEWIGYIYYSGNTYYNPSLKSRVTISLDTSKNQFSLKVNSVTAADTAVYYCARAASTSVLGYGMDVWGQGTTVTVSS
VL: B1 VL with N31R, H38Q, K39E, E42K, N48V, A64G, N93S, I96L
B2 gave an MFI in assay [5] of 218 MFI.

B3: 3255_J06 (antibody, V domains shown)
VH: B1 VH with I92V
VL: B1 VL with T74S, S77G, Q100P
Regarding B3, the MFI in assay [5] stood at 442 MFI.

B4: 3420_I23 (antibody, V domains shown)
VH: QVQLQESGPGLVKPSETLSVTCKVSGDSISSYSWSWIRQPPGKGLEWVGYLYYSGSTKYNPSLKSRTTISVDTSTNQLSLKLSFVTAADTAVYFCARTGSESTTGYGMDVWGQGTTVTVSS
VL: B1 VL with N31T, H38Q, E42K, N48I, Q55H, A64G, T72A, N93S, T94P
In assay [5], B4 returned an MFI of 112 MFI.

B5: 3139_P23 (antibody, V domains shown)
VH: QVQLQESGPRLVKPSESLSLTCTVSGGSISNSFWGWIRQPPGEGLEWIGYVYNSGNTKYNPSLKSRVTISRDTSKSQLYMKLRSVTAADTAVYYCARHDDASHGYSISWGHGTLVTVSS
VL: DIQMTQSPSSLSASVGDRVTITCRASQTISTYLNWYQQKSGKAPKLLIYAASGLQSGVPSRFSGSGSGTDFTLTISSLQPEDFATYFCQQSYNTPLTFGQGTKVEIK
Molecule B5 registered an MFI in assay [5] of 110 MFI.

B6: 3259_J21 (antibody, V domains shown)
VH: QVQLQESGPRVVRPSETLSLTCTVSGGSISSYNWIWIRQPPGKGLEWIGHIYDYGRTFYNSSLQSRPTISVDASKNQLSLRLTSVTASDTAVYYCARPLGILHYYAMDLWGQGTTVTVSS
VL: DIQMTQSPLSVSVSVGDRVTIACRASQSIDKFLNWYQQKPGKAPKLLIYGASNLHSGAPSRFSASGSGTDFTLTITNIQTEDFATYLCQQSFSVPAFGGGTKVEIK
B6 displayed an MFI in assay [5] of 1670 MFI.

B7: 3248_P18 (antibody, V domains shown)
VH: QVQLQESGPGLVKPSETLSLTCTVSGGSISAYHWSWIRQPPGKGLEWIGHIFDSGSTYYNPSLKSRVTISLDASKNQLSLRLTSVTASDTAIYYCARPLGSRYYYGMDVWGQGTTVTVSS
VL: DIQMTQSPSSLSASVGDRVTITCRASQSISRYLNWYQQKPGKAPKLLIYGASTLQNGAPSRFSGSGSGTDFTLTISSLQPEDSATYLCQQSYSVPAFGGGTKVEVK
For the molecule B7, the MFI in assay [5] was found to be 967 MFI.

B8: 3260_D19 (antibody, V domains shown)
VH: DMQLVESGGGLVPPGGSLRLSCAASGFSVSDNYINWVRQAPGKGLDWVSVFYSADRTSYADSVKGRFTVSSHDSKNTVYLQMNSLRAEDTAVYYCARVQKSYYGMDVWGQGTTVTVSS
VL: GIQMTQSPSSLSASVGDRVTITCRASQSISRYLNWYLQKPGKAPKLLISGASSLQSGVPSRFSGTGSGTEFTLTISSLQPEDFATYYCQQTFSIPLFGQGTKVEIK
In turn, B8 gave an MFI in assay [5] of 846 MFI.

B9: 3242_P05 (antibody, V domains shown)
VH: B8 VH
VL: B8 VL
With B9, in assay [5], the MFI was 596 MFI.

B10: 3241_G23 (antibody, V domains shown)
VH: QVQLQQSGPGLVKPSQTLSLTCTVSGGPVSGGGYSWNWIRQRPGQGLEWVGFMFHSGSPRYNPTLKSRITISVDTSKNLVSLKLSSVTAADTAVYFCARVGQMDKYYAMDVWGQGTTVTVSS
VL: DIQMTQSPSSLSSSVGDRVTITCRASQSIGAYVNWYQQKAGKAPQVLIFGASNLQSGVPSRFSGSGSGTDFTLTISSLQPEDFATYFCQQTYSTPITFGQGTRLEIK
In assay [5], B10 came in with an MFI of 1700 MFI.

B11: 3244_H04 (antibody, V domains shown)
VH: EVQLVESGGGLVQPGGSLRLSCTASGLSVSSTYMNWVRQAPGKGLEWVSVFYSETRTYYADSVKGRFTVSRHNSNNTLYLQMNSLRAEDTAVYYCARVQRLSYGMDVWGQGTTVTVSS
VL: DIQMTQSPSSLSASVGDRVTITCRASQSISTYLNWYQKRPGKAPKLLVYGASSLQSGVPSRFSGSGSGTDFTLTIASLQPEDSAVYYCQQTYSIPLFGQGTRLEIK
Consider B11, for which the MFI in assay [5] worked out at 963 MFI.

B12: 3245_O19 (antibody, V domains shown)
VH: B11 VH with A87V
VL: B11 VL with S53T, V85T
In the case of B12, the MFI in assay [5] is 919 MFI.

B13: 23K12 (TCN-031) (antibody, V domains shown)
VH: EVQLVESGGGLVQPGGSLRISCAASGFTVSSNYMSWVRQAPGKGLEWVSVIYSGGSTYYADSVKGRFSFSRDNSKNTVFLQMNSLRAEDTAVYYCARCLSRMRGYGLDVWGQGTTVTVS
VL: DIQMTQSPSSLSASVGDRVTITCRTSQSISSYLNWYQQKPGKAPKLLIYAASSLQSGVPSRFSGSGSGTDFTLTISGLQPEDFATYYCQQSYSMPAFGQGTKLEIK
In the assay with HVIR1, B13 came in with an ELISA A450 of 0.21.

B14: 8I10 (TCN-032) (antibody, V domains shown)
VH: QVQLQESGPGLVKPSETLSLTCTVSGSSISNYYWSWIRQSPGKGLEWIGFIYYGGNTKYNPSLKSRVTISQDTSKSQVSLTMSSVTAAESAVYFCARASCSGGYCILDYWGQGTLVTVS
VL: DIQMTQSPSSLSASVGDRVTITCRASQNIYKYLNWYQQRPGKAPKGLISAASGLQSGVPSRFSGSGSGTDFTLTITSLQPEDFATYYCQQSYSPPLTFGGGTRVEIK
Take B14: the ELISA A450 in the assay with HVIR1 came out at 0.11. Also, the MFI in assay [5] is 754 MFI and 1080 MFI.

B15: 3253_P10 (antibody, V domains shown)
VH: QVQLQESGPGLLKPSDTLALTCTVSGGSITSDYWSWIRQPPGRGLDWIGFFYNGGSTKYNPSLKSRVTISADTSKNQLSLKLTSVTAADTGVYYCARHDAKFSGSYYVASWGQGTRVTVSS
VL: DIQMTQSPSSLSASVGDRVTISCRASQSISTYLNWYQQQPGKAPKVLISGATDLQSGVPSRFSGSGSGTDFTLTISSLQPEDFATYYCQQSYNTPLIFGQGTKLEIK
In assay [5], B15 gave an MFI of 43 MFI.

B16: 3244_I10 (antibody, V domains shown)
VH: B15 VH
VL: B15 VL with S49F, D53N
As for B16, the MFI in assay [5] is 434 MFI.

B17: 3243_J07 (antibody, V domains shown)
VH: B15 VH with A100V
VL: B15 VL with D53N
Turning to B17, the MFI in assay [5] amounted to 131 MFI.

B18: 3136_G05 (antibody, V domains shown)
VH: QVQLQESGPGLVKPSETLSLTCSVSGGSISSDFWSWIRQPPGKGLEWIGYVYNRGSTKYSPSLKSRVTISADMSKNQFSLNMSSVTAADTAVYYCAKNGRSSTSWGIDVWGKGTTVTVSS
VL: DIQMTQSPSSLSASVGDRLTITCRASQSISTYLHWYQQKPGKAPKLLIYAASSLQSGVPSRFSGSRSGTDFTLTISSLQPDDFATYYCQQSYSPPLTFGPGTKVDMK
In assay [5], B18 yielded an MFI of 109 MFI.
